Kd data for one molecule are collected here from patent US20220017605A1 (ICAHN SCHOOL OF MEDICINE AT MOUNT SINAI, published 2022).

Several values for one entry are separate records, joined by “and”; a condition that tells them apart may be missing. Equal values may be shown once.

Assay [1] deals with recombinant NS1 protein of Zika virus MR766 (Rhesus/1947/Uganda) with C-terminal hexahistidine tag (Zika virus MR766, UniProt Q32ZE1 791-1142).
The target of assay [2] is recombinant NS1 protein of Zika virus PRVABC59 (2015/Puerto Rico) with C-terminal hexahistidine tag (Example … (Zika virus PRVABC59, UniProt A0A024B7W1 795-1146)).
Chain of recombinant NS1 protein of Zika virus PRVABC59 (2015/Puerto Rico) with C-terminal hexahistidine tag (Example … (A0A024B7W1 795-1146, tags left off): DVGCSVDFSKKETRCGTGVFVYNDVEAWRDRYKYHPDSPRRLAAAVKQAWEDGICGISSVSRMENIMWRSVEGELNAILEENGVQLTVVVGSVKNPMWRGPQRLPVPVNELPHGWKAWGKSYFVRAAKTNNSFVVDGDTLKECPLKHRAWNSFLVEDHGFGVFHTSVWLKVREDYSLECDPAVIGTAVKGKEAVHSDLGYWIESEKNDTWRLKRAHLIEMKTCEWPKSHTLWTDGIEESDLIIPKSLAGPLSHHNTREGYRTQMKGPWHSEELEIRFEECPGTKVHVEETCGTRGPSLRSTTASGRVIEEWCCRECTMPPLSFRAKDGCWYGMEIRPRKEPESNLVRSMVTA

Chain of recombinant NS1 protein of Zika virus MR766 (Rhesus/1947/Uganda) with C-terminal hexahistidine tag (Q32ZE1 791-1142, tags left off): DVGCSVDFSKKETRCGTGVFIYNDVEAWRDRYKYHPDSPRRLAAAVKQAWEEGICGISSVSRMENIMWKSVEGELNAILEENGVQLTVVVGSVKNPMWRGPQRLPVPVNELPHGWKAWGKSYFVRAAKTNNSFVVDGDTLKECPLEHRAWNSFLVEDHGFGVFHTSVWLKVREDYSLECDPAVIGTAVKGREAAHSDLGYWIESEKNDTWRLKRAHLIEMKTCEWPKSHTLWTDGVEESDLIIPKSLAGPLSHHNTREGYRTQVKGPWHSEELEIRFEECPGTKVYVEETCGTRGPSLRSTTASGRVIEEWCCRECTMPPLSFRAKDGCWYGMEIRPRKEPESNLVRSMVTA

B1: human monoclonal antibody AA12 (antibody, V domains shown)
VH: EVQLVESGGGLIQPGGSLRLSCAASGFTVSSNYMSWVRQAPGKGLEWVSVIYSGGSTYYADSVKGRFTISRDNSKNTLYLQMNSLRAEDTAVYYCARDRRGFDYWGQGTMVTVSS
VL: DIQMTQSPLSLSASVGDRVTITCRTSQSISSYLNWYQQKPGKAPKLLIYAASSLQSGVPSRFSGSGSGTDFTLTISSLQPEDFATYYCQQTYSTPLTFGGGTKVEIK
Turning to B1, the Kd in assay [1] is 55.4 nM and 99.8 nM; in assay [2], 147 nM and 76.1 nM.

The term Kd denotes the free concentration of one partner at which half of the binding sites on the other are occupied at equilibrium, for simple one-to-one binding.
